Source: IntAct's records for PubMed 31653868

B1: Protein PIGBOS1 (Homo sapiens), A0A0B4J2F0 (parent)
chain: MFRRLTFAQLLFATVLGIAGGVYIFQPVFEQYAKDQKELKEKMQLVQESEEKKS
partner: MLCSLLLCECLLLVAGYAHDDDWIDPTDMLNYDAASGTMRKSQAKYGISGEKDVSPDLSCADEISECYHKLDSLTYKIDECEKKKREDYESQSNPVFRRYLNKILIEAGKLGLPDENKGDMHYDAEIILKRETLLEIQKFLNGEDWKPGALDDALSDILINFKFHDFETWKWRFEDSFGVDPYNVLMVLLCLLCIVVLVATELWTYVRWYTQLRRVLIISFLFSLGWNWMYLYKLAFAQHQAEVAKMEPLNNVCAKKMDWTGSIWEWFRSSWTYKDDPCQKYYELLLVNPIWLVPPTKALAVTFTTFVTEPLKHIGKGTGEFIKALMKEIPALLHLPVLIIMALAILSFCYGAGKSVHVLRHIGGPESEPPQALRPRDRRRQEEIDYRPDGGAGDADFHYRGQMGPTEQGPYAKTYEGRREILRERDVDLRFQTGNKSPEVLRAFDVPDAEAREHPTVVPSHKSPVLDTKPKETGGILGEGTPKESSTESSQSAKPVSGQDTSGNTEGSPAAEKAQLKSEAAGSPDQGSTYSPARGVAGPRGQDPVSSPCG

Variants of: B1
Settings: with clcc1_human CLCC1, Q96S66

| Variant | effect of a mutation on the interaction |
| --- | --- |
| K52A;K53A;S54A | with no effect |
| V46A;Q47A;E48A | with no effect |
| K40A;E41A;K42A | with no effect |
| E30A;Q31A;Y32A | disrupting interaction strength |
| M43A;Q44A;L45A | with no effect |
| K34A;D35A;Q36A | decreasing interaction strength |
| K37A;E38A;L39A | with no effect |
| S49A;E50A;E51A | with no effect |
